# Assay results published in patent US8642284.
# B1: recombinant 6xHis-tagged full-length mSir2α (protein)
# chain: MADEVALALQAAGSPSAAAAMEAASQPADEPLRKRPRRDGPGLGRSPGEPSAAVAPAAAGCEAASAAAPAALWREAAGAAASAEREAPATAVAGDGDNGSGLRREPRAADDFDDDEGEEEDEAAAAAAAAAIGYRDNLLLTDGLLTNGFHSCESDDDDRTSHASSSDWTPRPRIGPYTFVQQHLMIGTDPRTILKDLLPETIPPPELDDMTLWQIVINILSEPPKRKKRKDINTIEDAVKLLQECKKIIVLTGAGVSVSCGIPDFRSRDGIYARLAVDFPDLPDPQAMFDIEYFRKDPRPFFKFAKEIYPGQFQPSLCHKFIALSDKEGKLLRNYTQNIDTLEQVAGIQRILQCHGSFATASCLICKYKVDCEAVRGDIFNQVVPRCPRCPADEPLAIMKPEIVFFGENLPEQFHRAMKYDKDEVDLLIVIGSSLKVRPVALIPSSIPHEVPQILINREPLPHLHFDVELLGDCDVIINELCHRLGGEYAKLCCNPVKLSEITEKPPRPQKELVHLSELPPTPLHISEDSSSPERTVPQDSSVIATLVDQATNNNVNDLEVSESSCVEEKPQEVQTSRNVENINVENPDFKAVGSSTADKNERTSVAETVRKCWPNRLAKEQISKRLEGNQYLFVPPNRYIFHGAEVYSDSEDDVLSSSSCGSNSDSGTCQSPSLEEPLEDESEIEEFYNGLEDDTERPECAGGSGFGADGGDQEVVNEAIATRQELTDVNYPSDKS
# Key:
# [1] = biological target: histone H4 (calf thymus), P62803
# [2] = biological target: histone H4 N-terminal tail peptide (residues 1-20) acetylated at Lys16
# [3] = biological target: histone H3 N-terminal tail peptide (residues 1-20) di-acetylated at lysines 9 and 14
# [4] = biological target: histone H3 (calf thymus), intact protein, P68432
# [5] = biological target: unacetylated histone H3 N-terminal tail peptide (residues 1-20)
# [6] = biological target: histone H2A (calf thymus), P0C0S9
# [7] = biological target: histone H2B (calf thymus), P62808
protein,measurement,setting,value
B1,"ADP-ribosylation (transfer of 32P from NAD, SDS-PAGE)",[1],"but not to H1, H2A and H4"
same,"ADP-ribosylation (transfer of 32P from NAD, SDS-PAGE)",histone H1 (calf thymus),"but not to H1, H2A and H4"
same,ADP-ribosyltransferase and NAD hydrolase activities (thin layer chromatography),[2],Both ADP-ribosylation and NAD hydrolysis were stimulated by the Lys16Ac peptide
same,"ADP-ribosylation of peptide (32P-NAD, thin layer chromatography)",[3],Both the yeast and mouse Sir2 modified only the diacetylated H3 tail peptide
same,NAD-dependent deacetylation (HPLC),[3],gave rise to the same array of products with a similar yield as the yeast enzyme
same,"ADP-ribosylation (transfer of 32P from NAD, SDS-PAGE)",[4],transferred radioactive ADP-ribose to H2B and H3
same,"ADP-ribosylation of peptide (32P-NAD, thin layer chromatography)",[5],modified only the diacetylated H3 tail peptide (unacetylated peptide not modified)
same,"ADP-ribosylation (transfer of 32P from NAD, SDS-PAGE)",[6],"but not to H1, H2A and H4"
same,"ADP-ribosylation (transfer of 32P from NAD, SDS-PAGE)",[7],transferred radioactive ADP-ribose to H2B and H3
